Laboratory results: patent publication US20140087995A1 (published 2014)
Blank lines part the entries; values can stand above or below the binder they belong to. Numbered stars: 1 amine (or outer) side, 2 acyl side, 3 side chain; on linkers, the order of the positions; unused ones are H or OH. Bridge positions count the residues as written; N and C are the ends. Side chains are listed from the residue outwards. Ends that are not written are not given here. * marks the point of attachment. C20 diacid = O=C(O)CCCCCCCCCCCCCCCCCCC(=O)*; C16 diacid = O=C(O)CCCCCCCCCCCCCCC(=O)*; γGlu = O=C(O)[C@H](CCC(=O)[*:2])N[*:1]; AEEA = NCCOCCOCC(=O)O

Columns and labels:
[1] = target: T1, human amylin receptor (amylin 3(a) receptor: human calcitonin receptor coexpressed with RAMP-3) (human, UniProt P30988 25-474; O60896 24-148); assay: cell-based or functional assay
T1 sequence (looked up) 1: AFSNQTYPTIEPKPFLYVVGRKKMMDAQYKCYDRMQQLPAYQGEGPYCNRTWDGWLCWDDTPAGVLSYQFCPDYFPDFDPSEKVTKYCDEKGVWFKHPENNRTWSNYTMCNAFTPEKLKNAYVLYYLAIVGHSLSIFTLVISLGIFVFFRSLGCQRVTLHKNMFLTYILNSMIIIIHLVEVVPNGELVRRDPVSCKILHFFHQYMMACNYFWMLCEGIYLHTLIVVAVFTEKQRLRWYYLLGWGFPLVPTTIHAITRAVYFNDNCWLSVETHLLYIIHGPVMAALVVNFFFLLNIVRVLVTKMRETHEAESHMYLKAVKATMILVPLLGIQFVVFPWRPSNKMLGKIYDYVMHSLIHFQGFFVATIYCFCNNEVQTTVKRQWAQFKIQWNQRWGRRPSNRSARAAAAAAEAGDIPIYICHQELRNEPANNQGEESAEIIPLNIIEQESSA
T1 sequence (looked up) 2: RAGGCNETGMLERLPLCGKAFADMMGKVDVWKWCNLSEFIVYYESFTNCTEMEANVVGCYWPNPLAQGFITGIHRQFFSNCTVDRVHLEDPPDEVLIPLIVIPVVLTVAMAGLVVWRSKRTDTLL

[2] = target: T2, human calcitonin receptor (human, UniProt P30988 25-474); assay: cell-based or functional assay
T2 sequence (looked up): T1 sequence (looked up) 1

- hAmylin-R funct. EC50 (pM) [1]: 298 pM
- hCTR funct. EC50 (pM) [2]: 19200 pM
B3: N^ε1-[(4S)-4-carboxy-4-[[(4S)-4-carboxy-4-(19-carboxynonadecanoylamino)butanoyl]amino]butanoyl]-[Arg17,Pro21,Pro27,His34]-h-amylin (peptide)
peptide: K([γGlu-γGlu-C20 diacid])CNTATCATQRLANFLRHSSPNFGAIPSSTNVGHNTY-NH2
modifications: disulfide 2-7; N-terminus assumed
SMILES: CC[C@H](C)[C@H](NC(=O)[C@H](C)NC(=O)CNC(=O)[C@H](Cc1ccccc1)NC(=O)[C@H](CC(N)=O)NC(=O)[C@@H]1CCCN1C(=O)[C@H](CO)NC(=O)[C@H](CO)NC(=O)[C@H](Cc1c[nH]cn1)NC(=O)[C@H](CCCNC(=N)N)NC(=O)[C@H](CC(C)C)NC(=O)[C@H](Cc1ccccc1)NC(=O)[C@H](CC(N)=O)NC(=O)[C@H](C)NC(=O)[C@H](CC(C)C)NC(=O)[C@H](CCCNC(=N)N)NC(=O)[C@H](CCC(N)=O)NC(=O)[C@@H](NC(=O)[C@H](C)NC(=O)[C@@H]1CSSC[C@H](NC(=O)[C@@H](N)CCCCNC(=O)CC[C@H](NC(=O)CC[C@H](NC(=O)CCCCCCCCCCCCCCCCCCC(=O)O)C(=O)O)C(=O)O)C(=O)N[C@@H](CC(N)=O)C(=O)N[C@@H]([C@@H](C)O)C(=O)N[C@@H](C)C(=O)N[C@@H]([C@@H](C)O)C(=O)N1)[C@@H](C)O)C(=O)N1CCC[C@H]1C(=O)N[C@@H](CO)C(=O)N[C@@H](CO)C(=O)N[C@H](C(=O)N[C@@H](CC(N)=O)C(=O)N[C@H](C(=O)NCC(=O)N[C@@H](Cc1c[nH]cn1)C(=O)N[C@@H](CC(N)=O)C(=O)N[C@H](C(=O)N[C@@H](Cc1ccc(O)cc1)C(N)=O)[C@@H](C)O)C(C)C)[C@@H](C)O
notes: also called compound 86

- hAmylin-R funct. EC50 (pM) [1]: 145 pM
- hCTR funct. EC50 (pM) [2]: 5400 pM
B4: N^ε1-[(4S)-4-carboxy-4-(19-carboxynonadecanoylamino)butanoyl]-[Arg17,Pro21,Pro27,His34]-h-amylin (peptide)
peptide: K([γGlu-C20 diacid])CNTATCATQRLANFLRHSSPNFGAIPSSTNVGHNTY-NH2
modifications: disulfide 2-7; N-terminus assumed
SMILES: CC[C@H](C)[C@H](NC(=O)[C@H](C)NC(=O)CNC(=O)[C@H](Cc1ccccc1)NC(=O)[C@H](CC(N)=O)NC(=O)[C@@H]1CCCN1C(=O)[C@H](CO)NC(=O)[C@H](CO)NC(=O)[C@H](Cc1c[nH]cn1)NC(=O)[C@H](CCCNC(=N)N)NC(=O)[C@H](CC(C)C)NC(=O)[C@H](Cc1ccccc1)NC(=O)[C@H](CC(N)=O)NC(=O)[C@H](C)NC(=O)[C@H](CC(C)C)NC(=O)[C@H](CCCNC(=N)N)NC(=O)[C@H](CCC(N)=O)NC(=O)[C@@H](NC(=O)[C@H](C)NC(=O)[C@@H]1CSSC[C@H](NC(=O)[C@@H](N)CCCCNC(=O)CC[C@H](NC(=O)CCCCCCCCCCCCCCCCCCC(=O)O)C(=O)O)C(=O)N[C@@H](CC(N)=O)C(=O)N[C@@H]([C@@H](C)O)C(=O)N[C@@H](C)C(=O)N[C@@H]([C@@H](C)O)C(=O)N1)[C@@H](C)O)C(=O)N1CCC[C@H]1C(=O)N[C@@H](CO)C(=O)N[C@@H](CO)C(=O)N[C@H](C(=O)N[C@@H](CC(N)=O)C(=O)N[C@H](C(=O)NCC(=O)N[C@@H](Cc1c[nH]cn1)C(=O)N[C@@H](CC(N)=O)C(=O)N[C@H](C(=O)N[C@@H](Cc1ccc(O)cc1)C(N)=O)[C@@H](C)O)C(C)C)[C@@H](C)O
notes: also called compound 77

- hAmylin-R funct. EC50 (pM) [1]: 82 pM
- Ratio hCT/hAmylin funct. [2]: 10
- hCTR funct. EC50 (pM) [2]: 818 pM
B6: N{-1}-[(4S)-4-carboxy-4-(19-carboxynonadecanoylamino)butanoyl]-Gly[Arg1,His14,Arg17,Pro21,Pro27]-h-amylin (peptide)
peptide: {C20 diacid-γGlu}-GRCNTATCATQRLAHFLRHSSPNFGAIPSSTNVGSNTY-NH2
modifications: disulfide 3-8
SMILES: CC[C@H](C)[C@H](NC(=O)[C@H](C)NC(=O)CNC(=O)[C@H](Cc1ccccc1)NC(=O)[C@H](CC(N)=O)NC(=O)[C@@H]1CCCN1C(=O)[C@H](CO)NC(=O)[C@H](CO)NC(=O)[C@H](Cc1c[nH]cn1)NC(=O)[C@H](CCCNC(=N)N)NC(=O)[C@H](CC(C)C)NC(=O)[C@H](Cc1ccccc1)NC(=O)[C@H](Cc1c[nH]cn1)NC(=O)[C@H](C)NC(=O)[C@H](CC(C)C)NC(=O)[C@H](CCCNC(=N)N)NC(=O)[C@H](CCC(N)=O)NC(=O)[C@@H](NC(=O)[C@H](C)NC(=O)[C@@H]1CSSC[C@H](NC(=O)[C@H](CCCNC(=N)N)NC(=O)CNC(=O)CC[C@H](NC(=O)CCCCCCCCCCCCCCCCCCC(=O)O)C(=O)O)C(=O)N[C@@H](CC(N)=O)C(=O)N[C@@H]([C@@H](C)O)C(=O)N[C@@H](C)C(=O)N[C@@H]([C@@H](C)O)C(=O)N1)[C@@H](C)O)C(=O)N1CCC[C@H]1C(=O)N[C@@H](CO)C(=O)N[C@@H](CO)C(=O)N[C@H](C(=O)N[C@@H](CC(N)=O)C(=O)N[C@H](C(=O)NCC(=O)N[C@@H](CO)C(=O)N[C@@H](CC(N)=O)C(=O)N[C@H](C(=O)N[C@@H](Cc1ccc(O)cc1)C(N)=O)[C@@H](C)O)C(C)C)[C@@H](C)O
notes: 38 residues: Gly added before position 1 of human amylin; also called compound 99

More lines, now with the values behind:

B1: N^ε1-[2-[2-[2-(19-carboxynonadecanoylamino)ethoxy]ethoxy]acetyl]-[Arg17,Pro21,Pro27,His34]-h-amylin (peptide)
peptide: K([AEEA-C20 diacid])CNTATCATQRLANFLRHSSPNFGAIPSSTNVGHNTY-NH2
modifications: disulfide 2-7; N-terminus assumed
SMILES: CC[C@H](C)[C@H](NC(=O)[C@H](C)NC(=O)CNC(=O)[C@H](Cc1ccccc1)NC(=O)[C@H](CC(N)=O)NC(=O)[C@@H]1CCCN1C(=O)[C@H](CO)NC(=O)[C@H](CO)NC(=O)[C@H](Cc1c[nH]cn1)NC(=O)[C@H](CCCNC(=N)N)NC(=O)[C@H](CC(C)C)NC(=O)[C@H](Cc1ccccc1)NC(=O)[C@H](CC(N)=O)NC(=O)[C@H](C)NC(=O)[C@H](CC(C)C)NC(=O)[C@H](CCCNC(=N)N)NC(=O)[C@H](CCC(N)=O)NC(=O)[C@@H](NC(=O)[C@H](C)NC(=O)[C@@H]1CSSC[C@H](NC(=O)[C@@H](N)CCCCNC(=O)COCCOCCNC(=O)CCCCCCCCCCCCCCCCCCC(=O)O)C(=O)N[C@@H](CC(N)=O)C(=O)N[C@@H]([C@@H](C)O)C(=O)N[C@@H](C)C(=O)N[C@@H]([C@@H](C)O)C(=O)N1)[C@@H](C)O)C(=O)N1CCC[C@H]1C(=O)N[C@@H](CO)C(=O)N[C@@H](CO)C(=O)N[C@H](C(=O)N[C@@H](CC(N)=O)C(=O)N[C@H](C(=O)NCC(=O)N[C@@H](Cc1c[nH]cn1)C(=O)N[C@@H](CC(N)=O)C(=O)N[C@H](C(=O)N[C@@H](Cc1ccc(O)cc1)C(N)=O)[C@@H](C)O)C(C)C)[C@@H](C)O
notes: also called compound 91
- hAmylin-R funct. EC50 (pM) [1]: 40 pM
- Ratio hCT/hAmylin funct. [2]: 36.9
- hCTR funct. EC50 (pM) [2]: 1480 pM

B2: N^ε1-[(4S)-4-carboxy-4-(15-carboxypentadecanoylamino)butanoyl]-[Arg17,Pro21,Pro27,His34]-h-amylin (peptide)
peptide: K([γGlu-C16 diacid])CNTATCATQRLANFLRHSSPNFGAIPSSTNVGHNTY-NH2
modifications: disulfide 2-7; N-terminus assumed
SMILES: CC[C@H](C)[C@H](NC(=O)[C@H](C)NC(=O)CNC(=O)[C@H](Cc1ccccc1)NC(=O)[C@H](CC(N)=O)NC(=O)[C@@H]1CCCN1C(=O)[C@H](CO)NC(=O)[C@H](CO)NC(=O)[C@H](Cc1c[nH]cn1)NC(=O)[C@H](CCCNC(=N)N)NC(=O)[C@H](CC(C)C)NC(=O)[C@H](Cc1ccccc1)NC(=O)[C@H](CC(N)=O)NC(=O)[C@H](C)NC(=O)[C@H](CC(C)C)NC(=O)[C@H](CCCNC(=N)N)NC(=O)[C@H](CCC(N)=O)NC(=O)[C@@H](NC(=O)[C@H](C)NC(=O)[C@@H]1CSSC[C@H](NC(=O)[C@@H](N)CCCCNC(=O)CC[C@H](NC(=O)CCCCCCCCCCCCCCC(=O)O)C(=O)O)C(=O)N[C@@H](CC(N)=O)C(=O)N[C@@H]([C@@H](C)O)C(=O)N[C@@H](C)C(=O)N[C@@H]([C@@H](C)O)C(=O)N1)[C@@H](C)O)C(=O)N1CCC[C@H]1C(=O)N[C@@H](CO)C(=O)N[C@@H](CO)C(=O)N[C@H](C(=O)N[C@@H](CC(N)=O)C(=O)N[C@H](C(=O)NCC(=O)N[C@@H](Cc1c[nH]cn1)C(=O)N[C@@H](CC(N)=O)C(=O)N[C@H](C(=O)N[C@@H](Cc1ccc(O)cc1)C(N)=O)[C@@H](C)O)C(C)C)[C@@H](C)O
- hAmylin-R funct. EC50 (pM) [1]: 34 pM
- Ratio hCT/hAmylin funct. [2]: 65.1
- hCTR funct. EC50 (pM) [2]: 2210 pM

B5: N^ε1-[2-[2-[2-[[2-[2-[2-[[(4S)-4-carboxy-4-(19-carboxynonadecanoylamino)butanoyl]amino]ethoxy]ethoxy]acetyl]amino]ethoxy]ethoxy]acetyl]-[Arg17,Pro21,Pro27,His34 … (peptide)
peptide: K([AEEA-AEEA-γGlu-C20 diacid])CNTATCATQRLANFLRHSSPNFGAIPSSTNVGHNTY-NH2
modifications: disulfide 2-7; N-terminus assumed
SMILES: CC[C@H](C)[C@H](NC(=O)[C@H](C)NC(=O)CNC(=O)[C@H](Cc1ccccc1)NC(=O)[C@H](CC(N)=O)NC(=O)[C@@H]1CCCN1C(=O)[C@H](CO)NC(=O)[C@H](CO)NC(=O)[C@H](Cc1c[nH]cn1)NC(=O)[C@H](CCCNC(=N)N)NC(=O)[C@H](CC(C)C)NC(=O)[C@H](Cc1ccccc1)NC(=O)[C@H](CC(N)=O)NC(=O)[C@H](C)NC(=O)[C@H](CC(C)C)NC(=O)[C@H](CCCNC(=N)N)NC(=O)[C@H](CCC(N)=O)NC(=O)[C@@H](NC(=O)[C@H](C)NC(=O)[C@@H]1CSSC[C@H](NC(=O)[C@@H](N)CCCCNC(=O)COCCOCCNC(=O)COCCOCCNC(=O)CC[C@H](NC(=O)CCCCCCCCCCCCCCCCCCC(=O)O)C(=O)O)C(=O)N[C@@H](CC(N)=O)C(=O)N[C@@H]([C@@H](C)O)C(=O)N[C@@H](C)C(=O)N[C@@H]([C@@H](C)O)C(=O)N1)[C@@H](C)O)C(=O)N1CCC[C@H]1C(=O)N[C@@H](CO)C(=O)N[C@@H](CO)C(=O)N[C@H](C(=O)N[C@@H](CC(N)=O)C(=O)N[C@H](C(=O)NCC(=O)N[C@@H](Cc1c[nH]cn1)C(=O)N[C@@H](CC(N)=O)C(=O)N[C@H](C(=O)N[C@@H](Cc1ccc(O)cc1)C(N)=O)[C@@H](C)O)C(C)C)[C@@H](C)O
notes: also called compound 97
- hAmylin-R funct. EC50 (pM) [1]: 356 pM
- Ratio hCT/hAmylin funct. [2]: 33
- hCTR funct. EC50 (pM) [2]: 11800 pM
